Results published in IntAct's records for PubMed 20080707.

B1: Protein-glutamine gamma-glutamyltransferase 2 (Homo sapiens), P21980 (parent)
chain: MAEELVLERCDLELETNGRDHHTADLCREKLVVRRGQPFWLTLHFEGRNYEASVDSLTFSVVTGPAPSQEAGTKARFPLRDAVEEGDWTATVVDQQDCTLSLQLTTPANAPIGLYRLSLEASTGYQGSSFVLGHFILLFNAWCPADAVYLDSEEERQEYVLTQQGFIYQGSAKFIKNIPWNFGQFEDGILDICLILLDVNPKFLKNAGRDCSRRSSPVYVGRVVSGMVNCNDDQGVLLGRWDNNYGDGVSPMSWIGSVDILRRWKNHGCQRVKYGQCWVFAAVACTVLRCLGIPTRVVTNYNSAHDQNSNLLIEYFRNEFGEIQGDKSEMIWNFHCWVESWMTRPDLQPGYEGWQALDPTPQEKSEGTYCCGPVPVRAIKEGDLSTKYDAPFVFAEVNADVVDWIQQDDGSVHKSINRSLIVGLKISTKSVGRDEREDITHTYKYPEGSSEEREAFTRANHLNKLAEKEETGMAMRIRVGQSMNMGSDFDVFAHITNNTAEEYVCRLLLCARTVSYNGILGPECGTKYLLNLNLEPFSEKSVPLCILYEKYRDCLTESNLIKVRALLVEPVINSYLLAERDLYLENPEIKIRILGEPKQKRKLVAEVSLQNPLPVALEGCTFTVEGAGLTEEQKTVEIPDPVEAGEEVKVRMDLLPLHMGLHKLVVNFESDKLKAVKGFRNVIIGPA

Variants of: B1
Settings: with KRT19, P08727
KRT19, P08727, sequence (P08727 whole entry): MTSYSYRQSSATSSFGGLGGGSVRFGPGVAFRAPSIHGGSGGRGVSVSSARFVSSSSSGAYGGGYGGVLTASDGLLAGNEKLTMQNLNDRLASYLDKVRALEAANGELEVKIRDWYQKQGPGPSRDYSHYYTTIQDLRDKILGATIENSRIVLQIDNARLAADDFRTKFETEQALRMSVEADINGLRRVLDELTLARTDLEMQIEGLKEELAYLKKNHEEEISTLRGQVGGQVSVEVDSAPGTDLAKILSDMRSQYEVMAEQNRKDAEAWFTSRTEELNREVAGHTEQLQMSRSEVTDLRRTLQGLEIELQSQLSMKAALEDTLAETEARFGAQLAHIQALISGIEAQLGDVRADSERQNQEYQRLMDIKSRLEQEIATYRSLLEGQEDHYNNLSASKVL

effect of a mutation on the interaction	Variant
disrupting interaction	C277V
